The record followed here is patent US20260167718A1 (Merck Sharp & Dohme, published 2026).

Residue numbers refer to the chain shown, from its start. In names and notes the source's numbering stands.

The labels stand for the following.
B1: Chimeric anti-ILT3 52B8 mouse VH M64L/human IgG4 (S228P):mouse VL/human Kappa (antibody, V domains shown)
VH: EVQLVESGGDLVKPGGSLKLSCAASGFTFSNYGMSWVRQTPDRRLEWVATISGGGDYTNYPDSLRGRFTISRDNAKNTLYLQMSSLKSEDTAMYYCGRRLWFRSLYYAMDYWGQGTSVTVSS
VL: NIVLTQSPASLAVSLGQRATISCRASEKVDSFGNSFMHWYQQKPGQPPKLLIYLTSNLDSGVPARFSGSGSRTDFALTIDPVEADDAATYYCQQNNEDPYTFGGGTKLEIKR
notes: also called mAb 75
B2: Chimeric anti-ILT3 52B8 mouse VH M64V/human IgG4 (S228P):mouse VL/human Kappa (antibody, V domains shown)
VH: B1 VH with L64V
VL: B1 VL
notes: also called mAb 74
B3: Humanized anti-ILT3 mAb (52B8 VH1 M64L/VL2) IgG4 S228P/Kappa (antibody, V domains shown)
VH: EVQLVESGGGLVQPGGSLRLSCAASGFTFSNYGMSWVRQAPGKGLEWVATISGGGDYTNYPDSLRGRFTISRDNAKNSLYLQMNSLRAEDTAVYYCGRRLWFRSLYYAMDYWGQGTLVTVSS
VL: DIVLTQSPDSLAVSLGERATINCRASEKVDSFGNSFMHWYQQKPGQPPKLLIYLTSNLDSGVPDRFSGSGSGTDFTLTISSLQAEDVAVYYCQQNNEDPYTFGQGTKLEIKR
notes: also called mAb 18
B4: Humanized anti-ILT3 mAb (52B8 VH2 M64L/VL2) IgG4 S228P/Kappa (antibody, V domains shown)
VH: B3 VH with R87K
VL: B3 VL
notes: also called mAb 22
B5: Humanized anti-ILT3 mAb (52B8 VH2 M64V/VL2) IgG4 S228P/Kappa (antibody, V domains shown)
VH: B3 VH with L64V, R87K
VL: B3 VL
notes: also called mAb 14
B6: Humanized anti-ILT3 mAb (52B8 VH1 M64V/VL5 N34Q) IgG4 S228P/Kappa (antibody, V domains shown)
VH: B3 VH with L64V
VL: DIQLTQSPSSLSASVGDRVTITCRASEKVDSFGQSFMHWYQQKPGKAPKLLIYLTSNLDSGVPSRFSGSGSGTDFTLTISSLQPEDFATYYCQQNNEDPYTFGQGTKLEIKR
notes: also called mAb 46; humanized 52B8
B7: Humanized anti-ILT3 mAb (52B8 VH1/VL2) IgG4 S228P/Kappa (antibody, V domains shown)
VH: B3 VH with L64M
VL: B3 VL
notes: also called mAb 2
B8: Humanized anti-ILT3 mAb (52B8 VH2 M64L/VL1) IgG4 S228P/Kappa (antibody, V domains shown)
VH: B3 VH with R87K
VL: B3 VL with G72R
notes: also called mAb 21
B9: Humanized anti-ILT3 mAb (52B8 VH2/VL2) IgG4 S228P/Kappa (antibody, V domains shown)
VH: B3 VH with L64M, R87K
VL: B3 VL
notes: also called mAb 6
B10: Humanized anti-ILT3 mAb ((52B8 VH1 M64V/VL7) L234A L235A D265S) IgG1/Kappa (antibody)
heavy: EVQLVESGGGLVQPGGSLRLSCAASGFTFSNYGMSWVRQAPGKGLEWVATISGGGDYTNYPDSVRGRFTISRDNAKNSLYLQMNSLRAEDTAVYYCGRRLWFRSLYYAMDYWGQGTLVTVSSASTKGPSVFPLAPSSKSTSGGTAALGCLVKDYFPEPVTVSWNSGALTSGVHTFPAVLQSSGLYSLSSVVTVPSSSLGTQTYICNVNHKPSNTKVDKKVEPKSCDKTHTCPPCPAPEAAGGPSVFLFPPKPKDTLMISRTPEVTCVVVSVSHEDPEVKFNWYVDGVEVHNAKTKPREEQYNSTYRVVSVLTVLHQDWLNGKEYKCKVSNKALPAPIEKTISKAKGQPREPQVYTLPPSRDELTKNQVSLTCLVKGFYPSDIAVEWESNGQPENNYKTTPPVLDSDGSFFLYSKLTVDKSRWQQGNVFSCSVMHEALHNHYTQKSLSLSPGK
light: DIQLTQSPSSLSASVGDRVTITCRASEKVDSFGNSFMHWYQQKPGKAPKLLIYLTSNLDSGVPSRFSGSGSRTDFTLTISSLQPEDFATYYCQQNNEDPYTFGQGTKLEIKRTVAAPSVFIFPPSDEQLKSGTASVVCLLNNFYPREAKVQWKVDNALQSGNSQESVTEQDSKDSTYSLSSTLTLSKADYEKHKVYACEVTHQGLSSPVTKSFNRGEC
notes: also called mAb 28
B11: Humanized anti-ILT3 mAb ((52B8 VH1 M64V/VL5) L234A L235A D265S) IgG1/Kappa (antibody)
heavy: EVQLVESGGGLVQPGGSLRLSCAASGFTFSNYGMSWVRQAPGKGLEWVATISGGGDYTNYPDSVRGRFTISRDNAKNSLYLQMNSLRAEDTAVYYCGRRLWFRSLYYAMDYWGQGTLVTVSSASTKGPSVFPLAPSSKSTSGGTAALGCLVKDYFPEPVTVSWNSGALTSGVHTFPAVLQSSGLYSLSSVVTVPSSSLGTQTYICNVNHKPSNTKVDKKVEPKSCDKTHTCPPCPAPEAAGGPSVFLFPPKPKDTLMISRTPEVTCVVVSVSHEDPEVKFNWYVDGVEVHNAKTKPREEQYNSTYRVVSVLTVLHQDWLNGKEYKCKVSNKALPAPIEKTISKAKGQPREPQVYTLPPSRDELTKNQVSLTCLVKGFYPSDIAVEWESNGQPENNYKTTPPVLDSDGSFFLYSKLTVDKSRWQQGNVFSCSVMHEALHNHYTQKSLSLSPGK
light: B10 light with R72G
notes: also called mAb 26
B12: Humanized anti-ILT3 mAb ((52B8 VH1 M64V/VL6) L234A L235A D265S) IgG1/Kappa (antibody)
heavy: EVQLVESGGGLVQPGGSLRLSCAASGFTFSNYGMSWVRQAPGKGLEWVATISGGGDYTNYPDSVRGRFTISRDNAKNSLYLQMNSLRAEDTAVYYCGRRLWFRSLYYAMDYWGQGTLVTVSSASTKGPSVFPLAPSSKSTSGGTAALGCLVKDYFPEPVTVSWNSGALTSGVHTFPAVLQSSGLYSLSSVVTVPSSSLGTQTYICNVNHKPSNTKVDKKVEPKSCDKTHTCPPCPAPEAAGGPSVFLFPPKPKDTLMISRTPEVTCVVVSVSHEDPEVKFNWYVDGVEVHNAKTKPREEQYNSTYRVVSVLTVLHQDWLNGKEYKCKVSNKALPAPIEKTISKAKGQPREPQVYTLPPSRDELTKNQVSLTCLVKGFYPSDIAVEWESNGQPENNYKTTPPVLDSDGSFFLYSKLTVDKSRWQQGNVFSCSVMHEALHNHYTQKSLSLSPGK
light: B10 light with L4M
notes: also called mAb 27
B13: Humanized anti-ILT3 mAb ((52B8 VH1 M64V/VL2) L234A L235A D265S) IgG1/Kappa (antibody)
heavy: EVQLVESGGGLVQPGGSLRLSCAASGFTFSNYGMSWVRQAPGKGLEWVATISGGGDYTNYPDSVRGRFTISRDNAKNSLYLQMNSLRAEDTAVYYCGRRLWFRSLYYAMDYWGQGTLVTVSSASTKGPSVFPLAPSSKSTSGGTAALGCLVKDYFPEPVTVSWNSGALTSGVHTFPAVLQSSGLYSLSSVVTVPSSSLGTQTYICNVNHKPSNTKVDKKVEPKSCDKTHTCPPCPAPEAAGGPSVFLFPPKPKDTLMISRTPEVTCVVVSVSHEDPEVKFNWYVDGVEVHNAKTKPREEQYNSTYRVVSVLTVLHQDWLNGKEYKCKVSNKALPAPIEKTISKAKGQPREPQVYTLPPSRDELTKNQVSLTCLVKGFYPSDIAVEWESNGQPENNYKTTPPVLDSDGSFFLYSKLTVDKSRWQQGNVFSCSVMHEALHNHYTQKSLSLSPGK
light: DIVLTQSPDSLAVSLGERATINCRASEKVDSFGNSFMHWYQQKPGQPPKLLIYLTSNLDSGVPDRFSGSGSGTDFTLTISSLQAEDVAVYYCQQNNEDPYTFGQGTKLEIKRTVAAPSVFIFPPSDEQLKSGTASVVCLLNNFYPREAKVQWKVDNALQSGNSQESVTEQDSKDSTYSLSSTLTLSKADYEKHKVYACEVTHQGLSSPVTKSFNRGEC
notes: also called mAb 25
B14: Humanized anti-ILT3 mAb (52B8 VH2/VL4) IgG4 S228P/Kappa (antibody, V domains shown)
VH: B3 VH with L64M, R87K
VL: EIVLTQSPATLSLSPGERATLSCRASEKVDSFGNSFMHWYQQKPGQAPRLLIYLTSNLDSGIPARFSGSGSGTDFTLTISSLEPEDFAVYYCQQNNEDPYTFGQGTKLEIKR
notes: also called mAb 8
B15: Humanized anti-ILT3 mAb (52B8 VH1 M64V/VL4) IgG4 S228P/Kappa (antibody, V domains shown)
VH: B3 VH with L64V
VL: B14 VL
notes: also called mAb 12
B16: Humanized anti-ILT3 mAb (52B8 VH2/VL3) IgG4 S228P/Kappa (antibody, V domains shown)
VH: B3 VH with L64M, R87K
VL: B14 VL with I62V, G72R
notes: also called mAb 7
B17: Humanized anti-ILT3 mAb (52B8 VH1 M64L/VL4) IgG4 S228P/Kappa (antibody, V domains shown)
VH: B3 VH
VL: B14 VL
notes: also called mAb 20
B18: Humanized anti-ILT3 mAb (52B8 VH2 M64L/VL4) IgG4 S228P/Kappa (antibody, V domains shown)
VH: B3 VH with R87K
VL: B14 VL
notes: also called mAb 24
B19: Humanized anti-ILT3 mAb (52B8 VH2 M64V/VL4) IgG4 S228P/Kappa (antibody, V domains shown)
VH: B3 VH with L64V, R87K
VL: B14 VL
notes: also called mAb 16
B20: Humanized anti-ILT3 mAb (52B8 VH1/VL4) IgG4 S228P/Kappa (antibody, V domains shown)
VH: B3 VH with L64M
VL: B14 VL
notes: also called mAb 4
B21: Humanized anti-ILT3 mAb (52B8 VH2 M64V/VL3) IgG4 S228P/Kappa (antibody, V domains shown)
VH: B3 VH with L64V, R87K
VL: B14 VL with I62V, G72R
notes: also called mAb 15
B22: Humanized anti-ILT3 mAb (52B8 VH1 M64V/VL3) IgG4 S228P/Kappa (antibody, V domains shown)
VH: B3 VH with L64V
VL: B14 VL with I62V, G72R
notes: also called mAb 11
B23: Humanized anti-ILT3 mAb (52B8 VH2 M64L/VL3) IgG4 S228P/Kappa (antibody, V domains shown)
VH: B3 VH with R87K
VL: B14 VL with I62V, G72R
notes: also called mAb 23

In one experiment the target is T1, Rhesus monkey ILT3 expressed on CHO-K1 cells (rhesus monkey (Macaca mulatta)).
T1 construct: whole, on cells; also called rhILT3; CHO-rhesus ILT3
The experiment can be described thus: cELISA, CHO rhesus ILT3 cells.
By EC50 is commonly meant the concentration that produces a half-maximal response. B1 returned an EC50 of 0.137 µg/mL.

For the molecule B2, a half-maximal response (EC50) required 0.096 µg/mL.

Regarding B3, the EC50 was determined as 0.137 µg/mL.

For B4, the EC50 turned out to be 0.081 µg/mL.

Take B5: a half-maximal response (EC50) required 0.126 µg/mL.

For the molecule B6, the EC50 is 0.12 µg/mL.

For B7, the EC50 is 0.109 µg/mL.

In turn, B8 displayed an EC50 of 0.112 µg/mL.

B9: it took 0.118 µg/mL to reach a half-maximal effect (EC50).

A further experiment deals with T2, Human ILT3 (LILRB4) extracellular domain with C-terminal His Tag (human, UniProt Q8NHJ6 22-259).
T2 construct: the claims count residues 1-238 as the extracellular domain; also called human ILT3-His; ILT3_H
As to the kind of experiment: Biacore SPR, column huILT3 KD (nM). For orientation: Surface plasmon resonance follows binding to a sensor surface in real time, without labels.
As a reminder, the Kd is the concentration at which binding is half-saturated. The molecule B10 displayed a Kd of 0.57 nM.

B11 returned a Kd of 0.61 nM.

Take B12: binding was characterised by a dissociation constant (Kd) of 0.92 nM.

B13 gave a Kd of 0.74 nM.

For the next experiment, the target named is T3, rhesus ILT3-His tagged recombinant protein (rhesus monkey (Macaca mulatta)).
T3 construct: also called ILT3_MM; not shown: His tag
T3 chain: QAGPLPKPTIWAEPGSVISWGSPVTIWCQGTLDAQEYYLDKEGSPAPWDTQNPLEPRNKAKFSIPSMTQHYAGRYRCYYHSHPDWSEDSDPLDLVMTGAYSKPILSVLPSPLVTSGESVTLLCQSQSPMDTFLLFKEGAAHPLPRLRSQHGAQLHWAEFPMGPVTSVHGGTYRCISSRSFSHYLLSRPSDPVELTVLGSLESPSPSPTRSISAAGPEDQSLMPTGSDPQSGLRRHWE
As to the kind of experiment: Biacore SPR, column rhILT3 KD (nM).
With B10, the Kd amounted to 5.56 nM.

For B11, the Kd was determined as 4.9 nM.

Take B12: the Kd is 10.3 nM.

Turning to B13, the Kd is 8.66 nM.

Another experiment has as its target T2, Human ILT3 (LILRB4) extracellular …. As to the kind of experiment: SPR (Biacore), human ILT3-His. Here is the method: (§1) The binding kinetics and affinities of anti-human ILT3 clones for human or rhesus ILT3-His tagged recombinant protein were measured by surface plasmon resonance using a Biacore™ T200 system (GE Healthcare, Piscataway, NJ). HBS-EP+ buffer (BR-1006-69) was used as the running buffer. Anti-human Fc antibody (Human Fc Capture Kit, BR100839, GE Healthcare) was immobilized via amine coupling chemistry in all four flow cells on a Series S CM5 sensor chip (BR100530 or 29149603, GE Healthcare) following manufacturer instructions. Flow cell 1 was used as reference for background subtraction and was not used for capture. […] Following each injection cycle, all four flow cells were regenerated using 30 second injection of 3M MgCl₂ solution at a flow rate of 10 μL/minute. Reference subtracted sensorgrams were fit to a 1:1 Langmuir Binding Model in the Biacore™ T200 Evaluation Software (Version 2.0) to determine the association (ka) and dissociation (kd) rate constants and the equilibrium dissociation constant KD (=kd/ka).
In turn, B10 yielded a Kd of 0.57 nM.

In turn, B11 came in with a Kd of 0.61 nM.

Molecule B12 had a Kd of 0.92 nM.

Molecule B13 displayed a Kd of 0.74 nM.

As for B1, the affinity, expressed as Kd, was 0.41 nM.

In the case of B2, the Kd was 0.44 nM.

In turn, B3 yielded a Kd of 1 nM.

Regarding B4, the affinity, expressed as Kd, was 0.97 nM.

B14 yielded a Kd of 1.3 nM.

The molecule B15 showed a Kd of 1.5 nM.

On to B5, for which the affinity, expressed as Kd, was 1 nM.

Turning to B16, the dissociation constant (Kd) amounted to 0.96 nM.

Regarding B17, binding was put at a Kd of 1.3 nM.

As to B6, binding was put at a Kd of 0.77 nM.

B18 came in with a dissociation constant (Kd) of 1.2 nM.

In turn, B7 returned a Kd of 1.1 nM.

In turn, B19 showed a Kd of 1.4 nM.

In turn, B20 registered a Kd of 1.4 nM.

B8 displayed a Kd of 0.88 nM.

The molecule B21 came in with a Kd of 1 nM.

For the molecule B22, the affinity, expressed as Kd, was 1.1 nM.

Consider B23, for which binding was characterised by a dissociation constant (Kd) of 0.96 nM.

In turn, B9 gave a Kd of 1.1 nM.

Another experiment has as its target T3, rhesus ILT3-His tagged recombinant …. As to the kind of experiment: SPR (Biacore), rhesus ILT3-His. The procedure:
as §1
Regarding B10, the Kd came to 5.6 nM.

In the case of B11, the Kd turned out to be 4.9 nM.

Regarding B12, the Kd was found to be 10 nM.

With B13, the Kd stood at 8.7 nM.

Consider B1, for which the Kd stood at 9.3 nM.

B2: the Kd came to 9.2 nM.

On to B3, for which the Kd amounted to 22 nM.

Consider B4, for which the Kd came out at 21 nM.

For B14, the Kd came out at 27 nM.

In the case of B15, the Kd was found to be 29 nM.

As for B5, the Kd worked out at 22 nM.

In the case of B16, the Kd came to 26 nM.

Consider B17, for which the Kd amounted to 29 nM.

B6: the Kd is 15 nM.

On to B18, for which the Kd was determined as 27 nM.

B7: the Kd was determined as 20 nM.

Take B19: the Kd was determined as 29 nM.

As to B20, the Kd came to 29 nM.

B8: the Kd stood at 27 nM.

Turning to B21, the Kd was determined as 26 nM.

Regarding B22, the dissociation constant Kd was found to be 27 nM.

For the molecule B23, the Kd came to 24 nM.

For the molecule B9, the Kd was found to be 21 nM.

In the next experiment the target is T4, human ILT3 expressed on cells (human, UniProt Q8NHJ6 22-448).
T4 construct: whole, on cells; also called huILT3; LILRB4
The experiment can be described thus: cELISA, CHO human ILT3 cells.
For the molecule B1, the EC50 was found to be 0.086 µg/mL.

Molecule B2 registered an EC50 of 0.075 µg/mL.

In turn, B3 had an EC50 of 0.079 µg/mL.

The molecule B4 yielded an EC50 of 0.057 µg/mL.

In turn, B5 registered an EC50 of 0.077 µg/mL.

The molecule B6 displayed an EC50 of 0.088 µg/mL.

With B7, the EC50 was 0.7 µg/mL.

Consider B8, for which the response was half-maximal at 0.079 µg/mL (EC50).

Regarding B9, the EC50 came to 0.1 µg/mL.
